Source: the RNAGym collection of RNA variant scans (doi:10.1073/pnas.2313332121)

B1: TPR t1 (parent)
chain: GACCAAUCUGCCCUCAGAGCUCGAGAACAUCUUCGGAUGCAGAGGAGGCAGGCUUCGGUGGCGCGAUAGCGCCAACGUCCUCAACCUCCAAUGCAUCCCACCACAUGAUGAUGCCUGAAGAGCCUUGGUUUUUUG

Variants of: B1
Test: polymerase ribozyme fitness, log enrichment relative to wild type (log ratio); higher = more active; in vitro selection for triplet polymerase activity
How it was run: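 Fitness measures genotype enrichment against wild-type enrichment on a logarithmic scale, with inverse-variance-weighted averaging of replicates. The logarithm is base 2, and genotypes were kept only with ≥10 input reads and ≥1 read per output in Illumina sequencing. The sequenced libraries came from one triplicate in vitro selection round, including frozen incubation at −7 °C, of PCR-built, transcribed mutant libraries of each subunit of a heterodimeric triplet polymerase ribozyme.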

Row | Variant | polymerase ribozyme fitness (log ratio)
1 | C34A G77C U78C | -2.16
2 | C34U G58A C99U | -4.17
3 | U32C G42U A43U U87C C94A C101U C102U | -5.8
4 | U33G C73G G93U A121G | -5.53
5 | C34A C73G | -2.27
6 | U32C G48U C56A G71U | -3.98
7 | C34A C72G | -3.33
8 | C34U A46U C56G C72U G120C | -5.35
9 | U32C G57U | -0.164
10 | C34U G52U | -5.84
11 | U32G A43U G69U A100C U109C G117U U130A | -7.2
12 | U32C G60U U87C C101G | -5.05
13 | U33A U81A C102G G110C C115G | -6.08
14 | C34A U54G C56A | -4.3
15 | C34A A50U A83G | -4.58
16 | C34U C94G | -5.95
17 | C34A G45C C53A G60U | -1.66
18 | U33A C97A C123G | -4.21
19 | C34A U78A | -3.26
20 | C34U C56A C82A A83U C97A A121U | -5.4
21 | C34A A50G G93A | -3.46
22 | C34G G35C G63U A111U | -5.76
23 | U33C | -3.31
24 | U33A | -4.27

Row | Variant | polymerase ribozyme fitness (log ratio)
25 | U33G | -5.67
26 | C34U G60A | -5.21
27 | U33A C97U | -5.53
28 | U33G C97A | -5.28
29 | U32C C73U G117U | -2.41
30 | C34A G42C A121C | -4.79
31 | U32C G36A C64A A111G | -5.64
32 | C34U A41U G63U U109A C115A | -5.59
33 | U33A A84U C97U | -4.91
34 | C34A G110A | -5.44
35 | C34U C70U U112A G135U | -6.08
36 | U33G U87G | -5.18
37 | C34U C56U C115A | -4.02
38 | U32C G42A C56U C115U | -1.93
39 | U33G G120U | -5.27
40 | U33C C56A | -4.11
41 | C34A A41G C88U C101U | -3.38
42 | C34G C40U G113A C124A | -7.14
43 | U32C U92A U96C U132A | -2.97
44 | U32C U78C A100C | -2.28
45 | C34G A46G A91C | -8.04
46 | C34U A105G G120A | -5.77
47 | U32C G36A A83C | -3.09
48 | C34U C64U G113U | -5.9

Row | Variant | polymerase ribozyme fitness (log ratio)
49 | U32G G35U C40U C86U A121U | -5.02
50 | U32G G69U | -4.52
51 | U32C G47A | -1.18
52 | C34A C124G U130G | -0.7
53 | C34A C73U C82U C99A | -4.69
54 | U33A G48U G69U C97G | -3.18
55 | U32G G57C C76U C82G C85U C114G | -7.16
56 | C34G C53A | -5.71
57 | C34A U112G U130A U133A | -3.74
58 | C34U A41U C72U A105C G113C | -7.42
59 | U33A G44C G57U A121G | -4.61
60 | U33G A118G | -5.59
61 | C34G G120U | -4.75
62 | C34U C102U | -2.22
63 | C34A C70G C72G C82G | -6.51
64 | U32C U81A A90G U112A G113A | -1.38
65 | C34A G60C C97A C115G | -5.15
66 | C34G G48A G52C A84U G120A | -6.12
67 | C34A C56A | -3.11
68 | C34A C56U | -2.12
69 | U33A C89A G117U | -5.96
70 | U33C C72U | -3.04
71 | U33A G48C | -5.1
72 | C34U C123G | -1.94

Row | Variant | polymerase ribozyme fitness (log ratio)
73 | U33G A37U C49A C115U U131G | -6.12
74 | C34A G58C G63U | -4.79
75 | U32C G48U | -1.13
76 | C34G A41C A100C A103C U112A | -6.4
77 | C34A G63U G120A | -4.37
78 | C34A G57A C72U G93A | -5.18
79 | U32G G122A | -7.09
80 | C34G C56A U106C | -6
81 | U33A C86G C114U | -4.98
82 | U33G C104A A121C G135A | -5.07
83 | U33G C79G | -6.57
84 | C34G A95G U109G G117C | -6.44
85 | C34A A37C C72U A118G | -2.87
86 | C34A C86A | -3.67
87 | C34G C115A | -5.21
88 | C34U A43G G63A G65U C124A | -6.99
89 | C34A G47U G61A C86U U130A | -3.42
90 | C34G C72A | -6.05
91 | C34A G47C C82U A91G G120U | -7.66
92 | C34G G47C C104A C124A | -5.21
93 | C34A C114A | -4.47
94 | C34A U59A C124A | -0.848
95 | U32C G60C A75C C79G A118U G135U | -2.26
96 | U32C G45A G63C C114U | -2.97

Row | Variant | polymerase ribozyme fitness (log ratio)
97 | U32C C102G G113A | -7.53
98 | U33G C34G G52U | -6.73
99 | C34A G120C | -1.97
100 | C34U C64U C94G G113A | -7.42
101 | C34G C53G G61C U116C | -7.12
102 | U33C U38G | -4.8
103 | U33A A90C | -6.85
104 | C34U G42C | -6.44
105 | C34U C104U U112C | -2.1
106 | C34G A91G C114A U132A | -6.48
107 | U32C G35U A108G A121G | -7.39
108 | U33A G42A G52U G61A A121U | -5.46
109 | U33C G120U | -4.63
110 | C34A G45C C53A G60U C124A | -1.69
111 | C34A G45A C86A | -5.49
112 | U32G C56G | -6.87
113 | U32C G63U G69A | -4.13
114 | U32C G69A C76G G77C | -4.8
115 | U33C A43U | -5.07
116 | C34G C49U | -6.27
117 | U32C G42C U54G C94A | -2.1
118 | C34A A37G | -2.73
119 | C34A U59C U112G | -4.39
120 | C34G G61C C99A U112G U116G | -6.27

Row | Variant | polymerase ribozyme fitness (log ratio)
121 | U33A C89G A103U U112A G113U | -5.8
122 | U32C G48U C101U A118G | -3.71
123 | U33C U38A C49G A103C G113U G117A | -6.59
124 | U32C G52U U81G | -4.15
125 | C34A G48U G93C | -4.96
126 | U32C G113U C123U | -3.78
127 | C34A A37G C53U U78G | -2.19
128 | C34G C53U G61U C73U G113C C114G | -8.49
129 | U33G C64A G71U U112A | -7.32
130 | U32C G47U G48U G113C | -3.38
131 | C34G G36A | -6.25
132 | U33A A68U | -7.2
133 | U32G G57A C123U | -7.55
134 | C34A G120A C124G U133A | 0.189
135 | C34A A41U G61C G120U | -6.86
136 | U32G C70A G117A | -5.24
137 | C34A G120C U130G | -3.21
138 | C34A G60C | -3.4
139 | C34G G61A | -5.85
140 | U33C U133G | -5.56
141 | C34G A50G C70G A74U A83C G110U U112G G120C | -6.67
142 | U32C G48A G52U C114A | -4.17
143 | U32C G93U | -0.79
144 | C34G G39C G120U | -6.09

Row | Variant | polymerase ribozyme fitness (log ratio)
145 | C34G C72G U96C A103U C124A | -7.14
146 | U33G G71A G117U | -8.01
147 | C34U G51U G61A C114U | -6.98
148 | U32C C72A C101U U112A C123G | -3.08
149 | C34U C73A | -4.32
150 | C34U C73U | -3.35
151 | U32G G35A C98A C99U U109A | -6.04
152 | C34G C101U | -6.46
153 | C34U C72U | -4.07
154 | U33A C114U | -4.64
155 | U33G G39U A50U A84U A91C C114A | -5.3
156 | C34A A41U G60C C99U C104A U116C U125A | -7.43
157 | U33A C56G G71U G93U C99U G110U G127C | -6.53
158 | C34A U59A | -2.58
159 | C34U G45U C88A C124G | -4.4
160 | U32G A43C C73U C97G G117A | -6.86
161 | C34U C56G | -4.5
162 | C34G C123G | -4.46
163 | C34G C123A | -6.76
164 | C34G C123U | -5.16
165 | C34A G93C | -3.62
166 | C34A G93A | -2.95
167 | C34A C73G U106A | -4.25
